Measured values from a protein production outcome set (Wang et al. 2014).

Test: label from the status in PepcDB records

Sequence | protein production
MAQENPLWMRHCAISPDGTTIAFTYKGDIFTVPVSGGKATQITTNPAFDTTPIWSPDSKQIAFASDRMGSMDVFIVSKDGGEPRRLTTFSGGETPVAFTDAGHILFTADIMPSTEDAGFPSNGQFQQIYQIPVSGGRPVMFSSMPMECISINKEGTILYQDKKGYEDYWRKHQKSPIARDIWMLRPGQTPRYEKQTTFIGEDREPVWAPDGKSFYYLSEENGTFNVYQRTPGSDTSKQVTHHKQHPVRFLEHHHHHH | failed
MSSEHIDEVSGISTTGHEWDGIRELNNPLPRWWVITFYITVAWAVAYTIAYPAWPMLSSATKGVLGYSSRNAVKIELAAAEAAKGKYVAAIQQKTVSEIAADDALREFAVAAGGATFKVNCVQCHGSGAQGSKGFPNLNDDDWLWGGTTEQIQQTIAHGIRFASDPDTRQSEMPPFGDIITPEQIAQVGAYVASLSGKVQDASLIEPGAKVFGENCVACHGDNAKGNKELGAPNLTDAIWLYAPGETAIAVQVRAPKHGVMPAWIGRLGETKVKELAVYVHSLGGGE | failed
MFSVNNTHSSVSCSPSINSNSTSNEHYLRILTEWEKNSSPGEERGIAFNRLSQCFQNQEAVLNLSDLNLTSLPELPKHISALIVENNKLTSLPKLPAFLKELNADNNRLSVIPELPESLTTLSVRSNQLENLPVLPNHLTSLFVENNRLYNLPALPEKLKFLHVYYNRLTTLPDLPDKLEILCAQRNNLVTFPQFSDRNNIRQKEYYFHFNQITTLPESFSQLDSSYRINISGNPLSTRVLQSLQRLTSSPDYHGPQIYFSMSDGQQNTLHRPLADAVTAWFPENKQSDVSQIWHAFEHEEHANTFSAFLDRLSDTVSARNTSGFREQVAAWLEKLSASAELRQQSFAVAADATESCEDRVALTWNNLRKTLLVHQASEGLFDNDTGALLSLGREMFRLEILEDIARDKVRTLHFVDEIEVYLAFQTMLAEKLQLSTAVKEMRFYGVSGVTANDLRTAEAMVRSREENEFTDWFSLWGPWHAVLKRTEADRWAQAEEQKYEMLENEYSQRVADRLKASGLSGDADAEREAGAQVMRETEQQIYRQLTDEVLALRLSENGSRLHHS | not failed
MEDSSGQSLLFQFILLLILTLLSAFFSASEMALVSLNRSRVEQKAEEGDKKFIRLLKVLENPNNFLSTIQVGITFIGLLQGASLSASLGAVIATWFGNVAWAKTAGSVVSLVVLTYISIVFGELYPKRIAMNLKENLAIYSAPVIIVTGKIVSPFVWILSASTNLLSRLTPMTFDDADEPMTRDEIEYMLTKSEDTLEAEEIEMLQGIFSLDELMAREVMVPRTDAFMIDIEDDTQENIQAILKQSFSRIPVYEDNKDKIIGVIHTKKLLKAAYELGFENVNLRRIMNEPLFVPETIFVDDLLAAFRNTNNQMAILLDEYGGVAGLVTFEDLLEEIVGEIDDETDKASVEVREIGENTYIVEGSMTLNDFNEHFDTELESDDVDTIAGYYLTGVGAIPTQEVKEHYEVINKDKRLEFINDKVKDGRVTKLKVIITAAPEEAGE | failed
MFISVLDLFKIGIGPSSSHTMGPMTAANVFRDHVDQLVSQTPDDLNYRVYCVLKGSLAFTGRGHATDRAVALGLHGHSPVSLAGEDVNALTAKLWATDTLQLTSGREIGFNPEDDIVFDKSDPLPQHPNGMIFYLLDEEGKKILSETFFSIGGGFICTLAEINQ | not failed
MFKTILLAYDGSEHARRAAEVAKAEAEAHGARLIVVHAYEPVPDYLGEPFFEEALRRRLERAEGVLEEARALTGVPKEDALLLEGVPAEAILQAARAEKADLIVMGTRGLGALGSLFLGSQSQRVVAEAPCPVLLVR | not failed
MTPVQLKNYLEQLVGNQIKTSTMIWGPPGIGKSSIVAQIAEEGKLRFIDLRLSQLAPTDLRGLPVAIPTSKTKPQTGTSAWYPPEFLPKDGAGILFLDELNMAPPAMQGVAQQLILDRRVGSYEVPTDWFIWAAGNRKEDRASVFEMPAPLANRFLHLDVQPDFESFKQYALEQKYHEQVIAFLSFRPGLIHKLDLQRPAWPSPRSWAIANGLHQVNLDVSPAVGEGCAAEFSAFVQLYKDLPDLEAIFRGQGQNIGFPTEPSSGYASTIGLAVRAKDATAGVNAFHWLTDKADSEWVQLFVTDMAGQLRRAGHLGALSIMAKKEPKLKQFMQGYQELLAILEHHHHHH | not failed
MNAPEIAAFKAERREPDKTDVDKLTGELDIRSEIWLIFDDLSTILEDQHFADKGVELLFSSLRYNTHNAKIIVTSRIVPIFENGESLIDVVEDEEKQNLKGLRKDYAVDYLVSNGLDKVEHEKLEELATGVDGHPLALKLLVELVKEFGVKDTLEDLSMYQESKDDTIKKARRLFDKLAGEEKELLESISVYREPVDMKGLREMFTLNTPKNAVKKLTDKSLLENDHNGSYWLHPLVQEFSYKDLKNKKEAHILAVKYCLSLPLPENPTKKGDVQPLIEAHYHTCAAKEYDAAAEIIFHFKLYEMLERWGNYNTLIELYEGVLPKSHFEDEPLLKNKEFHISILGNLGNVYTVLNEGKKAIQYHEKVVELNKGATNKFNEIISISNIGLFYFQQGMMKKAIECFEQTLKISNHDNQKGISGANLGNIGLVYLQIGEPKKAIQYFEKSLPLLKEANDKRREGANLGHMGMAYLQLNEAKEAVQCIQQSMYIAEEINDKRSIGNCFGNMGIIHSFFGEMKEALESYEQALSIAKEIDDRCNLGNWLGNKGRVYFDSGEIEKAIEFYKHALRIAKEINDVVREGLWIENLGQAFSYQGEFKKAIEYYEQALKISREIGNISAEGNLLENMGLAYYSLGEPRKAIEFLKESLAIRKAIEDPKIIGFCEQKLKELKGYDE | failed
MSWKIIEKYRRILAQEEGNSPKRRGGKLTVCLVYPNRYGVAMSNLGFQAVHALLNAESDILCERAFLPDPDDLREYRRSGARLLSLESQEPLSSFDIIAFSVSFESDYLNIPVIFDLAGIPALAAERTGSHPLVMGGGAALFLNPEPVADFLDLIVVGEGEAILPTFLDHIRADGIGDRAMFLAGVAGLPGIYVPSLYATEYDGARLVSREAKDGAPEQVKRIWMAEPDGRATVSEILTPGTEFSDMYLVEVSRGCGRGCRFCAAGFIYHPYRQRSLDAVKAAVAEGLSHRRKIGLVGAAVSDFREIGELCRHILAEGGTVSVSSLRIDRLDEGMIEVLKASGHKTVALAPEGGSQRIRDLINKNLTEEQILAACDLLIGHDILNLKLYFIIGLPTETMDDLEEMALLVEKIRKRVIAAARKNKRLGEIILSVNPFVPKPFTPFQWCGMEDTPSLEKKLKYLQQTVGRLSNVRLIAESPKDAWLQALLSRGDRRLSGFLLRAAELGNWKRAAREFPVDTDFLVHRTIPLDEMLPWDVIASADAERLRREYLKATPPRLEHHHHHH | failed
MRPALTTVQVFALLAVALSTLVFAASFAVDTTSARPEPVAFDNTVQRGVTAADEQIARNRSISIPRAQVFYSQYRYVVGYVGIGQAVTALTEPGHEQQFGYPLAVYVSDYSDRPVRCGDDGSLRTATPPDWVEANQAHYVVDGSARVPSGPAVVPFADRDDAAAFTETCGGQIIDWETLKTYSFDLKQAAAVREQVGPRRSGADATVQAARQHRNRPVSVEVGTDAPTVQAAVDAAPPNTTVVVPAGTYNEQVMIDKPLSLSGPGATLDGGGNGTVVTVTADRVGVTGFEITGIGNTTVGDPTQSNDSAWDATVTTAYGNSDAAVTGRNASGLYVANITVETPASGVVLRRTPGAVVENVTVNGTADWQDGFMGVIGMHRPIVVQDSVFNGGRDGVYLHRADGTAVRNNAFRDNRFGVHLMYTSRSLVADNVARGQEYAGVVVMTNPVANAIVGNDVRHSGSGIMLAGSRSYIAHNVVVDTTQAMSTNADRSLYEHNVLYGNDIGVRASTVVPSNIVTDNDFIANDRHAISGPGPLRVYTHDGRGNYWSGAYDLTGGTGPVLAQSYSPTDSVDRRLHQTDAAVVLRAAPSVRGLRALRGTTPGFRRGSIVDRAPLADPANPETVRRLRNETSMEGAA | failed
MKIIVKTLKGIRFEIEVKPNDSVAEVKKNIETVMGASEYPAAQQILIHKREKLRDETTMEANKVFDKSVIAIIITKGCLEEMEKQNPPLFQMIRHNSAGFVPVLNKESFERDNELAQPEEDLLQLQVTAVDDEAINRVLFYS | failed
MMNRVILVGRLTKDPDLRYTPNGVAVATFTLAVNRAFANQQGEREADFINCVIWRKQAENVANYLKKGSLAGVDGRLQTRNYEGQDGKRVYVTEVLAESVQFLEPRNGGGEQRGSFNQQPSGAGFGNQSSNPFGQSSNSGNQGNQGNSGFTKNDDPFSNVGQPIDISDDDLPF | failed
MELEQKLNLLNDLIVREIVNPLPPPYKVGVDLGTADIVLVVTDQEGIPVAGALKWASVVKDGLVVDYIGAIQIVRELKAKVERLLGSELFQAATAIPPGTVGRNAEACGHVVAGAGLELVTLVDEPVAAARALGINDGIVVDIGGGTTGIAVIEKGKITATFDEPTGGTHLSLVLAGSYKIPFEEAETIKKDFSRHREIMPVVRPVIEKMALIVKEVIKNYDQTLPVYVVGGTAYLTGFSEEFSRFLGKEVQVPIHPLLVTPLGIALFG | not failed
MNNRELGRWQEHKHIGDYGWGIILCVIILCCIGMWAVYYACLHDLKVIDPVRTTMMQCLWYLVGALIATTMLHLSEKQLMQWAPIGYSIGMLLLILLLVLYSREYYVQTGAKSWFAIGTLTFQPVEVMKPLYILMMGRLIVQDQQWGPHNNFNADWRLTRRLVIYTFPIIVALKIINDFGTTLVFLTIFIGMLIVSPCRFSFLWRVLLVAGSIGVVLILLATSSTGQSLLSHIGFKLYQFDRINTWLNPSNGVSDQSYQLWQSMRAVGVGGLTGNGVTHNAVYVPVRESDMIFSVVGETTGFIGCSVLLIVYMYLFYLIFRSAFASRRRFYVYVSTGVAVMLAFHMFENIGMTIGLLPLTGIPLPFVSQGGSAIIGDFMGVGLVLATQYPNVRSIFSVPRIFH | failed
MITQNIESLNNIAKIQHAANTDYLTDLANRRAFFRSAESRIKEYINKKVPYCLAMIDVDFFKKVNDTYGHDSGDQVLKVIALYMRKHFGAGLTARLGGEEFAVLLHGLDADYLHNKLDDFRREIAVSSIPAGDTSISITLSLGVVFDSEDELSKQMNEADNALYAAKENGRNQIVVFGAELDDLEHHHHHH | not failed
SGCRCCKIIQSYLFDPVQVPSPGYVNEVNSCKLDEDDTDKLKGKWSSEVLVQKNDPQRQGSKKTESSSRTADPWEPCWPHQGPLPQGDAGGEHHACGVNGIGPAATPQPTGNSSPTQDDRGSWASTANTVPPTQPFLEGGGTRKQDCVLLASEGTQVMRNGDSRAPSEAESFALEVQDHVFQIPAPDYLQHWGPAGDNVDHNEKDCVFKNHTEDESLEGIQPPVGEHGLNTPFSVRRSWDSLNEDVETEVLSICFNEKGPVHAMPVVDSGNRQEDTHGSDGDGDGEIVDEDAAVAEALAALEAATAGEDLDETD | not failed
MCAPKRGRSQQFITTVIVCWRMASFSFRIEVRLSDAERRPTMRQQLFSTLTVLVALVGLSRAVVAQPMAIATLTPPELQELQRLVPRSAEDYYNLGLMHQGRGDLAAAIDAFSQAIKLNPSADYYFARGLAYYDQGDMQRAIADFTTALGDDPQFIAAYYNRGMAYLALQNYDAAIADFDAALARDPQFVAAYYSRGMAHFDRGNVELAQRDYERARALNPAMTAQYYDRAPRPLTGGP | failed
MALLAIDLDMFGHGSAGQVLGRTDVDRVEYQYSTKSLLSIYIFYEETCGFFIDEEKKVFVVFELDESQAYKYAYIIGENICLKKLDLGEVRTFSCPIVCSSSYVPS | failed
GRARVKVEGVFYNPRMRFCRDLDMLVFATMDSKEYFDALSASGIRGIRAALEAGKKAVFNDVSPKAVKVIEENLRENGVSGEVINGDAAAVMRQRAFEHIDIDPFGSPAPFMDSACFSAKRYLSVTATDTAALCGSATNSGLKKYGAFAVKTDVYHEVGLRMLIGFVVREATKYEKALFPLISWVREHYYRVHFKIKKSTAMSAKVYEKMGYLAYCSTCLRKKVLGMGEGAERCECGGKFSLIGPIWLGELKQRDFAEKVAEKAEGKLRAFLEKILAEIDAPTAYSLPALAKIHSLTLPPTDVVVEELKKLGYEASRTHYCGFCVKTDADRDVVVKILRSRK | failed
EENPRGRFAITLPHSLESNVVMPAIEQLCIEYPGIEPEIIVSDSSLDLVENNLDVAIHAGDLPDSSYRALPIGTITEIFCATPLYLNKNFTPQKLSDLAQLKWI | failed
